This passage reports IgE concentration detected, A290 nm and IC25ng/mL results from patent US20110064726A1 (published 2011).

The target of test [1] is T1, cynomolgus monkey IgE (cynomolgus monkey).
T1 construct: serum was used as the source of IgE; also called cynomolgus IgE; cyno IgE
Put plainly: capture ELISA, antibody coated; Test 1, Cyno 6 serum. Here is the method:
(§1) Wells were washed once with 150 μL/well wash buffer (0.05% Tween-20, Sigma, Cat. No. P7949/TBS) then blocked with 150 μL/well 1% BSA (Sigma, Cat. No. A7030) in TBS for 2 hours at room temperature. Wells were washed twice with 150 μL wash buffer. 50 μL human (in-house donors) or cynomolgus serum (Harlan Sera-Lab Ltd, Loughborough) was added from neat to at least 1:16 dilution in 1% BSA/0.05% Tween-20/TBS diluent buffer. […] Wells were incubated for 2 hours at 25° C. before washing (3×150 μLwash buffer). […] Wells were incubated for 1 hour at 25° C. then washed (3×150 μL wash buffer). Streptavidin-HRP (Amersham Bioscience, Cat. No. RPN 1231) diluted 1:1000 in diluent buffer was added to all wells and incubated for 45 minutes at room temperature. Wells were washed (3×150 μL wash buffer). […] OPD (Dako, Cat. No. S2045) was added to all wells and the color allowed to develop for 10 minutes before stopping the reaction with 50 μl 0.6M H₂SO₄ and the absorbance measured at 490 nm.

In test [2] the target is T1, cynomolgus monkey IgE. Briefly: capture ELISA, antibody coated; Test 1, Cyno 4 serum. As to the method: as §1
On the technique in general: ELISA stands for enzyme-linked immunosorbent assay.

The target of test [3] is T1, cynomolgus monkey IgE. Briefly: capture ELISA, antibody coated; Test 1, Cyno 5 serum. As to the method: as §1
Test [4] deals with T2, human IgG1 (human, UniProt P01857-1 1-330 = IgG part).
T2 construct: bought preparation coated on the ELISA plate; not shown: bought immunoglobulin, light chain not described
T2 sequence (P01857 other isoform, or with tags, fused parts or gaps): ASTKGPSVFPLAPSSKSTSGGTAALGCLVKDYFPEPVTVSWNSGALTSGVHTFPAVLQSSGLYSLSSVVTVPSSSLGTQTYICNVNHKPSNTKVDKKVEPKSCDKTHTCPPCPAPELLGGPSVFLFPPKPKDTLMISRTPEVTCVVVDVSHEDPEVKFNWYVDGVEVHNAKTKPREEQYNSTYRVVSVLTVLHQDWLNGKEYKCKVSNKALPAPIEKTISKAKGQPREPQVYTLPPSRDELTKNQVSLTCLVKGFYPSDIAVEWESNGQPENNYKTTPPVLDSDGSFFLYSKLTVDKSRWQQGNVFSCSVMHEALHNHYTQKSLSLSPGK
Briefly: ELISA, immunoglobulin coated at 4 µg/mL, anti-human IgG2 detection. As to the method: (§2) Wells were washed 3× with 150 μL wash buffer (0.05% Tween-20 (Sigma, Cat. No. P7949)/PBS) then blocked with 150 μL/well blocking buffer (2.5% BSA (Sigma, Cat. No. A7030)/PBS) for 2 hours at room temperature. Wells were washed 3× with 150 μL wash buffer/well. […] Antibodies were diluted in diluent buffer (PBS/1% BSA/0.05% Tween-20) and this was added to blank control wells (duplicate wells for each secondary antibody used). Antibodies were incubated for 2 hours at room temperature. Wells were washed 3× with 150 μL wash buffer/well. Binding of control antibodies to immunoglobulin was detected with anti-mouse IgG-HRP conjugate (Sigma, Cat. No. A4416) diluted 1:8000 in diluent buffer. 50 μL/well was added to control antibody and blank wells. Wells were incubated for 1 hour at room temperature, then washed 3× with 150 μL wash buffer/well. 50 μl OPD (Dako, Cat. No. […] Wells were incubated for 1 hour at room temperature then washed 3× with 150 μL wash buffer/well. Streptavidin-HRP (Amersham Bioscience, Cat. No. RPN 1231) diluted 1:2000 in diluent buffer was added to all wells and incubated for 45 minutes at room temperature. Wells were washed (3×150 μL wash buffer).

For test [5], the target named is T3, human IgA (human).
T3 construct: bought preparation coated on the ELISA plate
Described as above. As to the method:
as §2

In test [6] the target is T4, human IgG3 (human, UniProt P01860-1 1-377).
T4 construct: bought preparation coated on the ELISA plate; not shown: bought immunoglobulin, light chain not described
T4 sequence (P01860 other isoform, or with tags, fused parts or gaps): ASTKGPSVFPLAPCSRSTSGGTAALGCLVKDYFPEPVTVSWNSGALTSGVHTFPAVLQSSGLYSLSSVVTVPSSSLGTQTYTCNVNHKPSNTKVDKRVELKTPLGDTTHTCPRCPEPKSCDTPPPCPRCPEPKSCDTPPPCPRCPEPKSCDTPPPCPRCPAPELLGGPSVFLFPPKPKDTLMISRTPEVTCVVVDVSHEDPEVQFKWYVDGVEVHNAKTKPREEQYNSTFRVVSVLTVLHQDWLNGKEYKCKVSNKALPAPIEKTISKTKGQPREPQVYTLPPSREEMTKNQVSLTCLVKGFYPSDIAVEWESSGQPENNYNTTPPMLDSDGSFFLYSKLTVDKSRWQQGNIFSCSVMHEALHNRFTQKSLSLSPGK
Described as above. As to the method: as §2

Test [7] deals with T1, cynomolgus monkey IgE. Put plainly: capture ELISA, antibody coated; Test 1, Cyno 7 serum. As to the method:
as §1

The target in test [8] is T1, cynomolgus monkey IgE. Put plainly: capture ELISA, antibody coated; Test 1, Cyno 2 serum. Here is the method: as §1
Test [9] deals with T1, cynomolgus monkey IgE. Put plainly: capture ELISA, antibody coated; Test 1, Cyno 1 serum. Here is the method: as §1
Test [10] addresses T1, cynomolgus monkey IgE. Briefly: capture ELISA, antibody coated; Test 2, Cyno 4 serum. Here is the method:
as §1

The target of test [11] is T1, cynomolgus monkey IgE. Put plainly: capture ELISA, antibody coated; Test 2, Cyno 1 serum. Here is the method: as §1
Test [12] has as its target T1, cynomolgus monkey IgE. Put plainly: capture ELISA, antibody coated; Test 2, Cyno 8 serum. As to the method: as §1
Test [13] deals with T1, cynomolgus monkey IgE. Briefly: capture ELISA, antibody coated; Test 2, Cyno 6 serum. Here is the method:
as §1

Test [14] concerns the target T1, cynomolgus monkey IgE. Put plainly: capture ELISA, antibody coated; Test 2, Cyno 2 serum. As to the method:
as §1

The target in test [15] is T1, cynomolgus monkey IgE. Briefly: capture ELISA, antibody coated; Test 2, Cyno 7 serum. As to the method:
as §1

Test [16] deals with T1, cynomolgus monkey IgE. Put plainly: capture ELISA, antibody coated; Test 2, Cyno 5 serum. Here is the method: as §1
For test [17], the target named is T1, cynomolgus monkey IgE. Put plainly: capture ELISA, antibody coated; Test 1, Cyno 3 serum. As to the method: as §1
For test [18], the target named is T1, cynomolgus monkey IgE. Put plainly: capture ELISA, antibody coated; Test 2, Cyno 3 serum. Here is the method:
as §1

For test [19], the target named is T5, human IgE (full length human immunoglobulin E) (human, UniProt P01854 1-546). Briefly: serum free IgE depletion ELISA; DIN 0451 experiment 2, initial free IgE 534 ng/mL.
T5 sequence (P01854 whole entry): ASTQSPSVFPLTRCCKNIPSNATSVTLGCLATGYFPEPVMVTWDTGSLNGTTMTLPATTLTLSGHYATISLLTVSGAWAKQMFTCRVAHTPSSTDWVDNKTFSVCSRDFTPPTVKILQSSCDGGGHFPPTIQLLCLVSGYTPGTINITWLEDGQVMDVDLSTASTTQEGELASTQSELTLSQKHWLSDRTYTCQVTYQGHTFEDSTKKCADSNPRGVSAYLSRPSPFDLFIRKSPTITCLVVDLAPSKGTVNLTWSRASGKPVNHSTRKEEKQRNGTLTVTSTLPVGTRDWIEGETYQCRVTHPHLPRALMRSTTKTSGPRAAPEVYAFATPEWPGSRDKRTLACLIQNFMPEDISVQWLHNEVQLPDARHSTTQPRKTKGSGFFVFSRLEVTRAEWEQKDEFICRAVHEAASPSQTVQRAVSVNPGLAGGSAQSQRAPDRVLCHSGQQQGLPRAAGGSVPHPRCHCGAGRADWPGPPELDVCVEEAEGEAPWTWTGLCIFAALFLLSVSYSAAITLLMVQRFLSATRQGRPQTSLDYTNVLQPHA
Test [20] addresses T5, human IgE (full length human …). Put plainly: serum free IgE depletion ELISA; DIN 0591, initial free IgE 152 ng/mL.
For test [21] the target is unchanged. Put plainly: serum free IgE depletion ELISA; DIN 0321 experiment 2, initial free IgE 265 ng/mL.
The target is the same in test [22]. Briefly: serum free IgE depletion ELISA; DIN 0632 experiment 2, initial free IgE 289 ng/mL.
For test [23] the target is unchanged. Briefly: serum free IgE depletion ELISA; DIN 0347, initial free IgE 221 ng/mL.
Test [24] shares this target. Put plainly: ELISA, immunoglobulin coated at 4 µg/mL, anti-human IgG2 detection. Here is the method:
as §2

Test [25] shares this target. Put plainly: serum free IgE depletion ELISA; DIN 0623 experiment 2, initial free IgE 133 ng/mL.
Test [26] shares this target. Put plainly: serum free IgE depletion ELISA; DIN 0011 experiment 2, initial free IgE 326 ng/mL.
Test [27] shares this target. Briefly: serum free IgE depletion ELISA; DIN 0461, initial free IgE 80 ng/mL.
Test [28] has the same target. Briefly: serum free IgE depletion ELISA; DIN 0649, initial free IgE 93 ng/mL.
For test [29] the target is unchanged. Briefly: serum free IgE depletion ELISA; DIN 0155, initial free IgE 93 ng/mL.

Numbering of substitutions follows the chain as printed. Names may count otherwise.

B1: recombinant 5.396.1 (antibody, human IgG2, kappa, V domains shown)
VH: QVQLQQWGAGLLKPSETLSLTCAVYGGSFSGYYWSWIRQPPGKGLEWIGEIHHSGSTNYNPSLKSRVTISVDTSKNQFSLKLSSVTAADTAVYYCARDNWNDSFYYYYGMDVWGQGTTVTVSS
VL: DIQMTQSPSSLSASVGDRVTITCRASQGISNHLAWFQQKPGKAPKSLIYAASSLQSGVPSKFSGSGSGTDFTLTISSLQPEDFATYYCQQYNRHPFTFGPGTKVDIKR
notes: human IgG2 kappa, expressed in 293 Freestyle cells; also called 5.396.1 (recombinant)
As to B1, the IgE concentration detected is 3 ng/mL in test [1]; 0 ng/mL in test [2]; 37 ng/mL in test [3]; 0 ng/mL in [7]; 0 ng/mL in test [8]; 30 ng/mL in test [9]. Moreover, the A290 nm in [4] worked out at 0.07 absorbance; in [5] it was 0.04 absorbance; in [6], 0.05 absorbance.

B2: 5.396.1 Hc-S103N Lc-K61R (antibody, human IgG2, kappa, V domains shown)
VH: B1 VH with S103N
VL: B1 VL with K61R
notes: human IgG2 kappa; the entries already hold the substitutions S103N (Hc) and K61R (Lc); also called 5.396.1 (S103N/K61R); 5.396.1 N/R
B2: the IgE concentration detected in [10] is 0 ng/mL; in test [1], 0 ng/mL; in [11], 57 ng/mL; in [2], 0 ng/mL; in test [12], 0 ng/mL; in test [13], 0 ng/mL. The IgE concentration detected in [3] turned out to be 57 ng/mL; in test [14] it was 39 ng/mL; in test [15], 0 ng/mL; in test [16], 102 ng/mL; in [17], 39 ng/mL; in test [7], 0 ng/mL. Further, the IgE concentration detected is 0 ng/mL in [8], 53 ng/mL in test [18] and 41 ng/mL in [9]. Besides, the A290 nm in test [4] was determined as 0.08 absorbance; in test [5] it was 0.04 absorbance; in [6], 0.05 absorbance.

B3: recombinant 6.605.1 (antibody, human IgG2, kappa, V domains shown)
VH: QVHLVQSGAEVKMPGASVKVSCKASGYTFTSYGISWVRQAPGQGLEWMGWISAYNGNTNYAQKLQGRITMTTDTSTSTAYMDLRSLRSDDTAVYYCARDGDYYDPFDYWGQGTLVTVSS
VL: DIQMTQSPSSLSASVGDRVTITCRTSQSISNWLNWYQQKPGKAPKLLIYGASTLKSGVPSRFSGSESGTDFTLTISSLQPEDFATYYCQQSYSTPPTFGQGTKVEIKR
notes: human IgG2 kappa; also called 6.605.1 (recombinant)
As to B3, the IgE concentration detected was found to be 0 ng/mL in test [1]; 0 ng/mL in test [2]; 140 ng/mL in test [3]; 107 ng/mL in [17]; 0 ng/mL in test [7]; 91 ng/mL in [8]. In test [9], the IgE concentration detected turned out to be 120 ng/mL. For the same molecule, the A290 nm came out at 0.07 absorbance in test [4], 0.04 absorbance in [5] and 0.05 absorbance in test [6].

B4: 6.605.1 Hc-H3Q,M13K,D82E Lc-T25A,T53S (antibody, human IgG2, kappa, V domains shown)
VH: B3 VH with H3Q, M13K, D82E
VL: B3 VL with T25A, T53S
notes: human IgG2 kappa; the entries already hold the substitutions; also called 6.605.1 (H3Q,M13K,D82E-T25A,T53S); 6.605.1 QKE/AS
As to B4, the IgE concentration detected was 0 ng/mL in test [2]; 173 ng/mL in test [3]; 122 ng/mL in test [17]; 0 ng/mL in [7]; 103 ng/mL in test [8]; 133 ng/mL in test [9]. Further, the A290 nm turned out to be 0.07 absorbance in test [4], 0.04 absorbance in [5] and 0.04 absorbance in [6].

B5: 5.948.1 Hc-H100Y (antibody, human IgG2, kappa, V domains shown)
VH: QVQLVQSGAEVKKPGASVKVSCKASGYTFTSYDINWVRQATGQGLEWMGWMDPNSGNTGYAQKFQGRVTMTRNTSISTAYMELSSLRSEDTAVYYCARGYYDSDGYYSFSGMDVWGQGTTVTVSS
VL: not shown
notes: human IgG2 kappa; the heavy chain entry already holds H100Y; also called 5.948.1 H100Y; 5.948.1 (H100Y)
As to B5, the IgE concentration detected was found to be 25 ng/mL in test [10]; 170 ng/mL in test [11]; 36 ng/mL in [12]; 39 ng/mL in test [13]; 199 ng/mL in test [14]; 0 ng/mL in test [15]. Moreover, the figures for the IgE concentration detected in test [16] and in test [18] were 420 ng/mL and 178 ng/mL, respectively. The IC25ng/mL in [19] is 10.5 µg/mL; in test [20], 0.55 µg/mL; in test [21] it was 2.55 µg/mL; in test [22] it was 2.29 µg/mL; in test [23], 1.33 µg/mL; in test [25], 0.76 µg/mL. For the same molecule, the IC25ng/mL in test [26] stood at 2.96 µg/mL; in test [27], 0.34 µg/mL; in [28] it was 0.39 µg/mL; in test [29], 0.34 µg/mL. Besides, the A290 nm in test [4] came out at 0.06 absorbance; in test [24], 1.05 absorbance; in test [5] it was 0.05 absorbance; in test [6] it was 0.06 absorbance.
